Laboratory results from PMC6201588, “Molecular cloning and characterization of vanillin dehydrogenase from Streptomyces sp. NL15-2K” (BMC Microbiology, 2018).

How the values were obtained:
COc1cc(C=O)ccc1O = test: purified protein; conditions: co-substrate NAD+ (0.5 mM in standard assay), 30 °C, pH 9.5
[1] = tested on: NC(=O)c1ccc[n+]([C@@H]2O[C@H](COP(=O)(O)OP(=O)(O)OC[C@H]3O[C@@H](n4cnc5c(N)ncnc54)[C@H](O)[C@@H]3O)[C@@H](O)[C@H]2O)c1; test: purified protein; conditions: co-substrate vanillin, pH 9.5, varied: cofactor
[2] = target: vanillin dehydrogenase from Streptomyces sp. NL15-2K (recombinant) (Streptomyces sp. NL15-2K); test: SEC; gel filtration of purified recombinant VDH on Superdex 200 10/300 GL, calibrated with thyroglobulin, ferritin, aldolase, conalbumin and ovalbumin; native mass compared with the subunit mass by SDS-PAGE

stoichiometry N [2]	Substance	Km (COc1cc(C=O)ccc1O) [µM]	kcat (COc1cc(C=O)ccc1O) [s⁻¹]	kcat/Km (COc1cc(C=O)ccc1O) [M⁻¹ s⁻¹]	Km [1] [µM]	kcat [1] [s^− 1]
–	VDH (vanillin dehydrogenase) from Streptomyces sp. NL15-2K (Streptomyces sp. NL15-2K; S2A)	8.47 ± 0.91	9.35 ± 0.77	1.11e+06 ± 100000	647 ± 40.0	23.45 ± 0.59
4	vanillin dehydrogenase from Streptomyces sp. NL15-2K (recombinant) (enzyme)	–	–	–	–	–
